Columns and labels:
[1] = molecular target: T1, SPPT, Sfp-like phosphopantetheinyl transferase (PPTase) from Synechocystis sp. PCC6803 (Synechocystis sp. PCC6803, UniProt Q55185 1-246); test: read from Km, Michaelis-Menten kinetics of phosphopantetheinylation (HPLC)
T1 construct: Recombinant protein with a His-tag from pET28b, made in E. coli
T1 sequence: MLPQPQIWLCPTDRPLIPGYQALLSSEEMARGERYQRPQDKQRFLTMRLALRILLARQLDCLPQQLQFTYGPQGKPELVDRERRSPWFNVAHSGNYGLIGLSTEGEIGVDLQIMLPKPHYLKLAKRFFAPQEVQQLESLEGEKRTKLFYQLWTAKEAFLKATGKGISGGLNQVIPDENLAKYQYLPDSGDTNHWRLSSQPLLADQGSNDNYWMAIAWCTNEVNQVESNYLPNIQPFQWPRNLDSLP

[2] = molecular target: T2, APPT, Sfp-like phosphopantetheinyl transferase (PPTase) from Anabaena sp. PCC7120 (Anabaena sp. PCC7120, UniProt P37695 1-237); test: as above
T2 construct: also called Anabaena PPTase
T2 sequence: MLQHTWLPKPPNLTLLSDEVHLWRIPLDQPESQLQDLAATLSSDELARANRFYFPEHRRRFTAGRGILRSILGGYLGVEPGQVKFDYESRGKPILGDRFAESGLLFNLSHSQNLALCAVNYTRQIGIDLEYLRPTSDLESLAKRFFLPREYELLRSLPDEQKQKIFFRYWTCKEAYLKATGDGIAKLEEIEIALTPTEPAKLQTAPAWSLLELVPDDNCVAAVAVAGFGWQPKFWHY

B1: SFACP, ACP of the FAS from Synechocystis (other)
chain: MDQEIFEKVKKIVVEQLEVDPDKVTPDATFAEDLGADSLDTVELVMALEEEFDIEIPDEVAETIDTVGKAVEHIESK
binding result [1]: binds
binding result [2]: binds

Source: patent US20210087522A1 (UNIVERSITY OF FLORIDA RESEARCH FOUNDATION, published 2021)
